Data set [1] is described as follows: Example 3 blood insulin pharmacokinetics after SC or intra-jejunal jet delivery. It is filed as in vivo, Yorkshire female swine. The procedure: A total of 18 Yorkshire female swine in good health and weighing 60-70 kg each were included in this study. Swine were divided into two groups with 9 animals per group. […] A sham surgical laparotomy was performed. […] The jet delivery device was configured with the single nozzle in an axial orientation.
Swine were divided into two groups with 9 animals per group. […] In all 18 animals, a laparotomy procedure was performed to expose the abdominal cavity. Animals remained under anesthesia during the entire procedure for the PK/PD study.
For the laparotomy in group 02, a small segment of the jejunal mucosa and serosa was exposed by midline laparotomy and the jet delivery device was inserted through antimesenteric incision.
(§1) Blood samples were kept on wet ice until centrifugation and separation of plasma. […] Glucose was monitored every five (5) minutes during the study by portable glucose analyzer (StatStrip (SS) hospital glucose monitoring system (Nova Biomedical, Waltham, Mass.)). At each time point, approximate 0.1 mL of blood was drawn and immediately placed on a glucose monitoring test strip, and the whole blood glucose concentration was measured by the SS in triplicate.
The animals were anesthetized for the entire ECP.

Data set [2] can be described thus: Example 3 euglycemic clamp pharmacodynamics (blood glucose, dextrose infusion rate). It counts as in vivo, Yorkshire female swine. The procedure:
as §1
A euglycemic clamp procedure (ECP) was employed to compare pharmacokinetics and pharmacodynamics of regular human Insulin (NOVOLIN® R) delivered subcutaneously (SC) in the neck versus intra-jejunally (IJ) by the jet delivery device in the small intestine. ECP was used to quantify the amount of glucose required to maintain normoglycemia after exogenous bolus of insulin. […] The animals were anesthetized for the entire ECP.

Data set [3] is described as follows: Example 6 dulaglutide plasma pharmacokinetics, ID via 2-nozzle device vs IV vs SC. It is filed as in vivo, female Yorkshire pigs (Sus scrofa domesticus). An excerpt:
The study design is shown below in Table 35.
Blood samples were kept on wet ice until centrifugation. […] All samples were maintained chilled throughout processing.

For data set [4] the following is noted: baseline dose, Admin. SC (Table 17); cited from earlier work.
Setting [5] is: IJ administration by jet delivery device (~40 U), Average of animals.
[6] abbreviates: IJ administration by jet delivery device (~40 U), animal 18P17.
[7] abbreviates: IJ administration by jet delivery device (~40 U), animal 18P22.
The mark [8] stands for this setting: IJ administration by jet delivery device (~40 U), animal 18P23.
Where [9] appears, read: IJ administration by jet delivery device (~40 U), animal 18P25.
The mark [10] stands for this setting: IJ administration by jet delivery device (~40 U), animal 18P28.
Setting [11] is: IJ administration by jet delivery device (~40 U), animal 18P33.
[12] abbreviates: IJ administration by jet delivery device (~40 U), animal 18P36.
Setting [13] is: SC administration, animal 18P15.
Setting [14] is: SC administration, animal 18P16.
Setting [15] is: SC administration, animal 18P19.
The mark [16] stands for this setting: SC administration, animal 18P20.
The mark [17] stands for this setting: SC administration, animal 18P34.
Setting [18] is: SC administration, animal 18P35.
The mark [19] stands for this setting: ID via ingestible device, 320 psig.

Marks after values point to notes of the source that are not given here.

With “Novolin® R: regular human insulin (NOVOLIN® R)”, the “AUC of blood insulin, SC vs IJ group” value in data set [1] (AUC0-420 min) is given as “higher than that of the IJ administration group”. Further, the Cmax blood insulin in data set [1] (setting [5]) turned out to be 77.40 uIU/mL; in data set [1] (IJ administration by jet delivery device (~40 U), animal 18P14) it was 96.77 uIU/mL; in data set [1] (setting [6]), 5.03 uIU/mL; in data set [1] (setting [7]) it was 7.96 uIU/mL; in data set [1] (setting [8]) it was 48.77 uIU/mL; in data set [1] (setting [9]) it was 40.93 uIU/mL. Further, the Cmax blood insulin in data set [1] (setting [10]) is given as 85.38 uIU/mL; in data set [1] (setting [11]), 207.96 uIU/mL; in data set [1] (setting [12]), 126.39 uIU/mL; in data set [1] (setting [13]), 451.00 uIU/mL; in data set [1] (setting [14]) it was 60.74 uIU/mL; in data set [1] (setting [15]), 354.00 uIU/mL. The Cmax blood insulin in data set [1] (setting [16]) was 356.60 uIU/mL; in data set [1] (SC administration, animal 18P21), 65.71 uIU/mL; in data set [1] (setting [17]) it was 59.18 uIU/mL; in data set [1] (setting [18]), 73.34 uIU/mL. Also, the Tmax blood insulin was 55.63 min in data set [1] (setting [5]); 50 min in data set [1] (setting [6]); 90 min in data set [1] (setting [7]); 40 min in data set [1] (setting [8]); 20 min in data set [1] (setting [9]); 40 min in data set [1] (setting [10]). Besides, the Tmax blood insulin is recorded as 40 min in data set [1] (setting [11]); 90 min in data set [1] (setting [12]); 50 min in data set [1] (setting [13]); 180 min in data set [1] (setting [14]); 105 min in data set [1] (setting [15]); 30 min in data set [1] (setting [16]). Also, the Tmax blood insulin in data set [1] (setting [17]) stood at 120 min; in data set [1] (setting [18]), 50 min. Also, the “maximum plasma concentration Cmax, SC vs IJ group” value in data set [1] (in vivo, sc) is given as “higher than that of the IJ administration group”. In addition, the “mean dextrose infusion rate, IJ vs SC group” value in data set [2] (first 70 minutes after administration) is given as “higher in the IJ administration group”; in data set [2] (from 75 minutes to 420 minutes post-administration) it was “higher in the SC administration group”.

By Tmax is commonly meant the time from dosing to the highest level. For dulaglutide, the Tmax in data set [3] (ID via 2-nozzle device 320 psig, 1.2 mg, swine plasma) was determined as 480 min. Further, the “(AUC)T0-T240 h ± SEM” value in data set [3] (ID via 2-nozzle device 320 psig, 1.2 mg, one animal below detection limit excluded (N=4)) was 4355.86 ± 1094.57 ^a ng · hr/mL; in data set [3] (IV, 1.2 mg), 16429.33 ± 600.93 ng·h/mL; in data set [3] (SC, 1.2 mg), 8869 ± 887.33 ng·h/mL. Besides, the “bioavailability relative to IV administration [(AUC)ID/IV*100%]” value in data set [3] (setting [19]) is “about 33%”. Further, in data set [3] (setting [19]), the “bioavailability relative to SC administration [(AUC)ID/SC*100%]” value is listed as “about 61%”. In addition, in data set [3] (ID via ingestible device, 320 psig, 1.2 mg, prior to exclusion of animal no. 8487, ±SEM), the “AUCID (ng·hr/mL±SEM)” value was determined as 3890.00 ± 94.73 ng·h/mL. In data set [3] (one animal in Group 1 (no. 8487; ID)), the “plasma level of dulaglutide” value is given as “below the limit of detection of the ELISA assay”.

With glucagon, in data set [4], the Bioavail. is recorded as 100.0%.

With somatropin, in data set [4], the Bioavail. is on record as 80.5%.

B1: concizumab (antibody, chains of the INN, looked up, V domains shown)
VH: EVQLVESGGGLVKPGGSLRLSCAASGFTFSNYAMSWVRQTPEKRLEWVATISRSGSYSYFPDSVQGRFTISRDNAKNSLYLQMNSLRAEDTAVYYCARLGGYDEGDAMDSWGQGTTVTVSS
VL: DIVMTQTPLSLSVTPGQPASISCKSSQSLLESDGKTYLNWYLQKPGQSPQLLIYLVSILDSGVPDRFSGSGSGTDFTLKISRVEAEDVGVYYCLQATHFPQTFGGGTKVEIK
Turning to B1, in data set [4], the Bioavail. is 93.0%.
